T1: DFNB31_2, Q9P202
T1 sequence (Q9P202 274-371, limits assumed, looked up): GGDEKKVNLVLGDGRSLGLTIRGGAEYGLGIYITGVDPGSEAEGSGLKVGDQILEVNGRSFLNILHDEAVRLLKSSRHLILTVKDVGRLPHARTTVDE

T2: DFNB31_3, Q9P202
T2 sequence (Q9P202 811-907, limits assumed, looked up): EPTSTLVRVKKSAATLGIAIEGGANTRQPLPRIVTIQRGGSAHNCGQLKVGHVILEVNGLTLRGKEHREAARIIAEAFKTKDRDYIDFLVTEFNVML

T3: DLG3_3, Q92796
T3 sequence (Q92796 374-475, limits assumed, looked up): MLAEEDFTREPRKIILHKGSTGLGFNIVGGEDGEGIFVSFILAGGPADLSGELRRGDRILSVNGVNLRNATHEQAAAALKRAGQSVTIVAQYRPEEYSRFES

T4: DVL3, Q92997
T4 sequence (Q92997 244-331, limits assumed, looked up): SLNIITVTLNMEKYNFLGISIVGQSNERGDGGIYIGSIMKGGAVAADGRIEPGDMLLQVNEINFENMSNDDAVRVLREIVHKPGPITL

T5: GRIP1_5, Q9Y3R0
T5 sequence (Q9Y3R0 568-668, limits assumed, looked up): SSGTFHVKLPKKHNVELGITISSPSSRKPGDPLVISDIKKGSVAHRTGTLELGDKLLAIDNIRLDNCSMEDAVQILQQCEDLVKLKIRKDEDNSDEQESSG

T6: GRIP1_7, Q9Y3R0
T6 sequence (Q9Y3R0 999-1096, limits assumed, looked up): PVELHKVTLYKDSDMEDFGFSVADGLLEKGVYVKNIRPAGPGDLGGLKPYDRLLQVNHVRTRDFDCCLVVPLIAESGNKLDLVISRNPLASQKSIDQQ

T7: LIN7C, Q9NUP9
T7 sequence (Q9NUP9 88-185, limits assumed, looked up): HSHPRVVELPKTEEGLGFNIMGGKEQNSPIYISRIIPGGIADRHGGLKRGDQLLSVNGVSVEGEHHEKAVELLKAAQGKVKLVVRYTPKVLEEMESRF

T8: LNX2_2, Q8N448
T8 sequence (Q8N448 334-432, limits assumed, looked up): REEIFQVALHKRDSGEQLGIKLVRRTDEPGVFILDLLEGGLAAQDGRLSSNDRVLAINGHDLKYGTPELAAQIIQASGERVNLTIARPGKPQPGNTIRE

T9: LNX2_3, Q8N448
T9 sequence (Q8N448 463-564, limits assumed, looked up): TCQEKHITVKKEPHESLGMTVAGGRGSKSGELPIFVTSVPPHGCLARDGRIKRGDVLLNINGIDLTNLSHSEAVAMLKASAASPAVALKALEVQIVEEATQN

T10: MPP2, Q14168
T10 sequence (Q14168 180-250, limits assumed, looked up): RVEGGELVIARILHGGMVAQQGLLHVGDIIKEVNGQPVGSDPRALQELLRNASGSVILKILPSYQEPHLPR

T11: NHERF3_1, Q5T2W1
T11 sequence (Q5T2W1 4-100, limits assumed, looked up): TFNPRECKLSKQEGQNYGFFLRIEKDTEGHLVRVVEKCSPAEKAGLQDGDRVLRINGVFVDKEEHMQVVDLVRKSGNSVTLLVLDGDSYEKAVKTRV

T12: PTPN13_1, Q12923
T12 sequence (Q12923 1088-1188, limits assumed, looked up): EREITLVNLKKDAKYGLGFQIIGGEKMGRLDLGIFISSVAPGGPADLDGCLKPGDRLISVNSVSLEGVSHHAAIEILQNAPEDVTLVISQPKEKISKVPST


Molecular target: T1, DFNB31_2, Q9P202
Assay: holdup assay
Design: key: below the threshold = too weak to quantify, mostly under pKd 3.1 to 4
Conditions: plain residues with an end cap or a label only (N-terminal biotin on a linker: ado-ado)

Row | Binder | pKd
1 | TISFTQTSQF [SLC1A1, P43005] | below the threshold

Molecular target: T2, DFNB31_3, Q9P202
Assay: holdup assay
Design: key: below the threshold = too weak to quantify, mostly under pKd 3.1 to 4
Conditions: plain residues with an end cap or a label only (N-terminal biotin on a linker: ado-ado)

Row | Binder | pKd
2 | TISFTQTSQF [SLC1A1, P43005] | 3.99

Molecular target: DLG1_1, Q12959
Assay: holdup assay
Design: key: below the threshold = too weak to quantify, mostly under pKd 3.1 to 4
Conditions: plain residues with an end cap or a label only (N-terminal biotin on a linker: ado-ado)

Row | Binder | pKd
3 | TISFTQTSQF [SLC1A1, P43005] | below the threshold

Molecular target: T3, DLG3_3, Q92796
Assay: holdup assay
Design: key: below the threshold = too weak to quantify, mostly under pKd 3.1 to 4
Conditions: plain residues with an end cap or a label only (N-terminal biotin on a linker: ado-ado)

Row | Binder | pKd
4 | TISFTQTSQF [SLC1A1, P43005] | below the threshold

Molecular target: T4, DVL3, Q92997
Assay: holdup assay
Design: key: below the threshold = too weak to quantify, mostly under pKd 3.1 to 4
Conditions: plain residues with an end cap or a label only (N-terminal biotin on a linker: ado-ado)

Row | Binder | pKd
5 | TISFTQTSQF [SLC1A1, P43005] | below the threshold

Molecular target: FRMPD3, Q5JV73
Assay: holdup assay
Design: key: below the threshold = too weak to quantify, mostly under pKd 3.1 to 4
Conditions: plain residues with an end cap or a label only (N-terminal biotin on a linker: ado-ado)

Chain of FRMPD3, Q5JV73 (Q5JV73 12-100): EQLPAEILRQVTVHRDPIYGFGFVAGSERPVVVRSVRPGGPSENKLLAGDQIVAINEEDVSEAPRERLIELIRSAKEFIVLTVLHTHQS

Row | Binder | pKd
6 | TISFTQTSQF [SLC1A1, P43005] | below the threshold

Molecular target: T5, GRIP1_5, Q9Y3R0
Assay: holdup assay
Design: key: below the threshold = too weak to quantify, mostly under pKd 3.1 to 4
Conditions: plain residues with an end cap or a label only (N-terminal biotin on a linker: ado-ado)

Row | Binder | pKd
7 | TISFTQTSQF [SLC1A1, P43005] | below the threshold

Molecular target: T6, GRIP1_7, Q9Y3R0
Assay: holdup assay
Design: key: below the threshold = too weak to quantify, mostly under pKd 3.1 to 4
Conditions: plain residues with an end cap or a label only (N-terminal biotin on a linker: ado-ado)

Row | Binder | pKd
8 | TISFTQTSQF [SLC1A1, P43005] | below the threshold

Molecular target: GRIP2_6, Q9C0E4
Assay: holdup assay
Design: key: below the threshold = too weak to quantify, mostly under pKd 3.1 to 4
Conditions: plain residues with an end cap or a label only (N-terminal biotin on a linker: ado-ado)

Chain of GRIP2_6, Q9C0E4 (Q9C0E4 648-740): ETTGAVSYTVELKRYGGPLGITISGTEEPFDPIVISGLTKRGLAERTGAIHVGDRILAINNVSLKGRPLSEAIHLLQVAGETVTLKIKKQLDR

Row | Binder | pKd
9 | TISFTQTSQF [SLC1A1, P43005] | below the threshold

Molecular target: IL16_3, Q14005
Assay: holdup assay
Design: key: below the threshold = too weak to quantify, mostly under pKd 3.1 to 4
Conditions: plain residues with an end cap or a label only (N-terminal biotin on a linker: ado-ado)

Chain of IL16_3, Q14005 (Q14005 1107-1207): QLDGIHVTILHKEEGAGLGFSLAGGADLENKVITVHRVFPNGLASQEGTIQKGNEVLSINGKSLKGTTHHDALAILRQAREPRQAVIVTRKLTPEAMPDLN

Row | Binder | pKd
10 | TISFTQTSQF [SLC1A1, P43005] | below the threshold

Molecular target: Inadl_4, Q8NI35
Assay: holdup assay
Design: key: below the threshold = too weak to quantify, mostly under pKd 3.1 to 4
Conditions: plain residues with an end cap or a label only (N-terminal biotin on a linker: ado-ado)

Chain of Inadl_4, Q8NI35 (Q8NI35 547-651): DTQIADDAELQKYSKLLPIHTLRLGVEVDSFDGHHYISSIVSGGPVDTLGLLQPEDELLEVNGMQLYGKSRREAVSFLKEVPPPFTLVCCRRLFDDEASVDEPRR

Row | Binder | pKd
11 | TISFTQTSQF [SLC1A1, P43005] | below the threshold

Molecular target: LIMK2, P53671
Assay: holdup assay
Design: key: below the threshold = too weak to quantify, mostly under pKd 3.1 to 4
Conditions: plain residues with an end cap or a label only (N-terminal biotin on a linker: ado-ado)

Chain of LIMK2, P53671 (P53671 143-248): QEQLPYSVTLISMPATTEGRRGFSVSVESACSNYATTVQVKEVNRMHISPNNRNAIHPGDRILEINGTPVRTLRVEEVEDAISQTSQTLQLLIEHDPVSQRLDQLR

Row | Binder | pKd
12 | TISFTQTSQF [SLC1A1, P43005] | below the threshold

Molecular target: T7, LIN7C, Q9NUP9
Assay: holdup assay
Design: key: below the threshold = too weak to quantify, mostly under pKd 3.1 to 4
Conditions: plain residues with an end cap or a label only (N-terminal biotin on a linker: ado-ado)

Row | Binder | pKd
13 | TISFTQTSQF [SLC1A1, P43005] | below the threshold

Molecular target: LNX1_1, Q8TBB1
Assay: holdup assay
Design: key: below the threshold = too weak to quantify, mostly under pKd 3.1 to 4
Conditions: plain residues with an end cap or a label only (N-terminal biotin on a linker: ado-ado)

Chain of LNX1_1, Q8TBB1 (Q8TBB1 261-371): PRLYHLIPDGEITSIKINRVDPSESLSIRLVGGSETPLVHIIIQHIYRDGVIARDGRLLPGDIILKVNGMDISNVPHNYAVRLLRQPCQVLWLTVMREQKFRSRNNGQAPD

Row | Binder | pKd
14 | TISFTQTSQF [SLC1A1, P43005] | below the threshold

Molecular target: T8, LNX2_2, Q8N448
Assay: holdup assay
Design: key: below the threshold = too weak to quantify, mostly under pKd 3.1 to 4
Conditions: plain residues with an end cap or a label only (N-terminal biotin on a linker: ado-ado)

Row | Binder | pKd
15 | TISFTQTSQF [SLC1A1, P43005] | below the threshold

Molecular target: T9, LNX2_3, Q8N448
Assay: holdup assay
Design: key: below the threshold = too weak to quantify, mostly under pKd 3.1 to 4
Conditions: plain residues with an end cap or a label only (N-terminal biotin on a linker: ado-ado)

Row | Binder | pKd
16 | TISFTQTSQF [SLC1A1, P43005] | below the threshold

Molecular target: MAGI1_2, Q96QZ7
Assay: holdup assay
Design: key: below the threshold = too weak to quantify, mostly under pKd 3.1 to 4
Conditions: plain residues with an end cap or a label only (N-terminal biotin on a linker: ado-ado)

Chain of MAGI1_2, Q96QZ7 (Q96QZ7 456-580): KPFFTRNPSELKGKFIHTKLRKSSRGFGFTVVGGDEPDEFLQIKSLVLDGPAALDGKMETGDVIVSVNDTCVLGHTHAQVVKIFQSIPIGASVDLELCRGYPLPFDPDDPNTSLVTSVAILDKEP

Row | Binder | pKd
17 | TISFTQTSQF [SLC1A1, P43005] | below the threshold

Molecular target: MAGI2_3, Q86UL8
Assay: holdup assay
Design: key: below the threshold = too weak to quantify, mostly under pKd 3.1 to 4
Conditions: plain residues with an end cap or a label only (N-terminal biotin on a linker: ado-ado)

Chain of MAGI2_3, Q86UL8 (Q86UL8 600-682): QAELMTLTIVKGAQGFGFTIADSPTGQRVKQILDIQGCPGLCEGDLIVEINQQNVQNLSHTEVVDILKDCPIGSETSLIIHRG

Row | Binder | pKd
18 | TISFTQTSQF [SLC1A1, P43005] | below the threshold

Molecular target: T10, MPP2, Q14168
Assay: holdup assay
Design: key: below the threshold = too weak to quantify, mostly under pKd 3.1 to 4
Conditions: plain residues with an end cap or a label only (N-terminal biotin on a linker: ado-ado)

Row | Binder | pKd
19 | TISFTQTSQF [SLC1A1, P43005] | below the threshold

Molecular target: T11, NHERF3_1, Q5T2W1
Assay: holdup assay
Design: key: below the threshold = too weak to quantify, mostly under pKd 3.1 to 4
Conditions: plain residues with an end cap or a label only (N-terminal biotin on a linker: ado-ado)

Row | Binder | pKd
20 | TISFTQTSQF [SLC1A1, P43005] | 4.73

Molecular target: NHERF4_1, Q86UT5-2
Assay: holdup assay
Design: key: below the threshold = too weak to quantify, mostly under pKd 3.1 to 4
Conditions: plain residues with an end cap or a label only (N-terminal biotin on a linker: ado-ado)

Chain of NHERF4_1, Q86UT5-2 (Q86UT5 other isoform, or with tags, fused parts or gaps): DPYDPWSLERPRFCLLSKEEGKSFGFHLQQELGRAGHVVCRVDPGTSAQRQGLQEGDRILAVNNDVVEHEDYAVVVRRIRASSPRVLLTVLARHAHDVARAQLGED

Row | Binder | pKd
21 | TISFTQTSQF [SLC1A1, P43005] | 3.99

Molecular target: T12, PTPN13_1, Q12923
Assay: holdup assay
Design: key: below the threshold = too weak to quantify, mostly under pKd 3.1 to 4
Conditions: plain residues with an end cap or a label only (N-terminal biotin on a linker: ado-ado)

Row | Binder | pKd
22 | TISFTQTSQF [SLC1A1, P43005] | below the threshold

Molecular target: PTPN3, P26045
Assay: holdup assay
Design: key: below the threshold = too weak to quantify, mostly under pKd 3.1 to 4
Conditions: plain residues with an end cap or a label only (N-terminal biotin on a linker: ado-ado)

Chain of PTPN3, P26045 (P26045 505-587): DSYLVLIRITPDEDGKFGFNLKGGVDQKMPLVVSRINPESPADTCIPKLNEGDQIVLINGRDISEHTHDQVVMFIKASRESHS

Row | Binder | pKd
23 | TISFTQTSQF [SLC1A1, P43005] | 4.09

Molecular target: SCRIB_2, Q14160
Assay: holdup assay
Design: key: below the threshold = too weak to quantify, mostly under pKd 3.1 to 4
Conditions: plain residues with an end cap or a label only (N-terminal biotin on a linker: ado-ado)

Chain of SCRIB_2, Q14160 (Q14160 857-960): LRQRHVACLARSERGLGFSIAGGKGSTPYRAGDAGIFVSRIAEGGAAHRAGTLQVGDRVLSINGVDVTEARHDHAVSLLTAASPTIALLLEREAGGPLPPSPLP

Row | Binder | pKd
24 | TISFTQTSQF [SLC1A1, P43005] | below the threshold

Molecular target: SCRIB_3, Q14160
Assay: holdup assay
Design: key: below the threshold = too weak to quantify, mostly under pKd 3.1 to 4
Conditions: plain residues with an end cap or a label only (N-terminal biotin on a linker: ado-ado)

Chain of SCRIB_3, Q14160 (Q14160 999-1103): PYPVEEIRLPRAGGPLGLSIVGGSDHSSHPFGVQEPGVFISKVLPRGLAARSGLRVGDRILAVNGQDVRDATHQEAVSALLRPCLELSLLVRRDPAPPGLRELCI

Row | Binder | pKd
25 | TISFTQTSQF [SLC1A1, P43005] | 3.72

Molecular target: TJP2_1, Q9UDY2
Assay: holdup assay
Design: key: below the threshold = too weak to quantify, mostly under pKd 3.1 to 4
Conditions: plain residues with an end cap or a label only (N-terminal biotin on a linker: ado-ado)

Chain of TJP2_1, Q9UDY2 (Q9UDY2 24-128): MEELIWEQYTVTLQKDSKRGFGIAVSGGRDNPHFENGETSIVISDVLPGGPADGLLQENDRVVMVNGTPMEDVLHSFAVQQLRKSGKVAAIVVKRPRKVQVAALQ

Row | Binder | pKd
26 | TISFTQTSQF [SLC1A1, P43005] | below the threshold

Source: article PMC9482650, “Quantitative fragmentomics allow affinity mapping of interactomes” (Nature Communications, 2022)
